The values that follow come from patent US20110207116A1 (University of California, published 2011).

The chains are these.
B1: PIF3APB-mYFP (other)
chain: MPLFELFRLTKAKLESAQDRNPSPPVDEVVELVWENGQISTQSQSSRSRNIPPPQANSSRAREIGNGSKTTMVDEIPMSVPSLMTGLSQDDDFVPWLNHH
notes: also called pAL100; PIF3-100NT; not shown: mYFP: EYFP with monomerizing A206K mutation
B2: PhyB(1-908)-10aaLinker-mCherry-Kras4BCT (other)
chain: MVSGVGGSGGGRGGGRGGEEEPSSSHTPNNRRGGEQAQSSGTKSLRPRSNTESMSKAIQQYTVDARLHAVFEQSGESGKSFDYSQSLKTTTYGSSVPEQQITAYLSRIQRGGYIQPFGCMIAVDESSFRIIGYSENAREMLGIMPQSVPTLEKPEILAMGTDVRSLFTSSSSILLERAFVAREITLLNPVWIHSKNTGKPFYAILHRIDVGVVIDLEPARTEDPALSIAGAVQSQKLAVRAISQLQALPGGDIKLLCDTVVESVRDLTGYDRVMVYKFHEDEHGEVVAESKRDDLEPYIGLHYPATDIPQASRFLFKQNRVRMIVDCNATPVLVVQDDRLTQSMCLVGSTLRAPHGCHSQYMANMGSIASLAMAVIINGNEDDGSNVASGRSSMRLWGLVVCHHTSSRCIPFPLRYACEFLMQAFGLQLNMELQLALQMSEKRVLRTQTLLCDMLLRDSPAGIVTQSPSIMDLVKCDGAAFLYHGKYYPLGVAPSEVQIKDVVEWLLANHADSTGLSTDSLGDAGYPGAAALGDAVCGMAVAYITKRDFLFWFRSHTAKEIKWGGAKHHPEDKDDGQRMHPRSSFQAFLEVVKSRSQPWETAEMDAIHSLQLILRDSFKESEAAMNSKVVDGVVQPCRDMAGEQGIDELGAVAREMVRLIETATVPIFAVDAGGCINGWNAKIAELTGLSVEEAMGKSLVSDLIYKENEATVNKLLSRALRGDEEKNVEVKLKTFSPELQGKAVFVVVNACSSKDYLNNIVGVCFVGQDVTSQKIVMDKFINIQGDYKAIVHSPNPLIPPIFAADENTCCLEWNMAMEKLTGWSRSEVIGKMIVGEVFGSCCMLKGPDALTKFMIVLHNAIGGQDTDKFPFPFFDRNGKFVQALLTANKRVSLEGKVIGAFCFLQIPSDSAGSAGSAGSKTKCVIM
modifications: phycocyanobilin (PCB) chromophore covalently bound; C-terminal CaaX prenylation sequence
notes: Expressed in NIH3T3 cells, localized to the plasma membrane; also called pAL149; PhyB908; not shown: mCherry fluorescent protein, amplified from a vector

Assay [1] deals with B2. Description: YFP membrane translocation in NIH3T3 cells, confocal microscopy.
Assay [2] has as its target T1, PhyB(1-450)-10aaLinker-mCherry-Kras4BCT (Arabidopsis thaliana, UniProt P14713 1-450, phycocyanobilin (PCB) chromophore covalently bound; C-terminal CaaX prenylation sequence).
T1 construct: Expressed in NIH3T3 cells at the plasma membrane; also called pAL161; PhyB-CBD; not shown: mCherry fluorescent protein, amplified from a vector
T1 sequence: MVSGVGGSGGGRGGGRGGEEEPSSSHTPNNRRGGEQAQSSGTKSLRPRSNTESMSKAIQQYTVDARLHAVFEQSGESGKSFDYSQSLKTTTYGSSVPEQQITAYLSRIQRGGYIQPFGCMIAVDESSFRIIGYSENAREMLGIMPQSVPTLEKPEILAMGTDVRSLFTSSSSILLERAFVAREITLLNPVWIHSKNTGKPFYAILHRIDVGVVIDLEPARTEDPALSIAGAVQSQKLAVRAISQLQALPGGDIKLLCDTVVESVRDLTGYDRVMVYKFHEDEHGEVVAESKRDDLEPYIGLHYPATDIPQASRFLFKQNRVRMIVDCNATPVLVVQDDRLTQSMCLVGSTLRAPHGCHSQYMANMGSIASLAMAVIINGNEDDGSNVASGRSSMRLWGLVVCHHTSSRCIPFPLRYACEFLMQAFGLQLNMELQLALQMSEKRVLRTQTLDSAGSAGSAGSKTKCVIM
The assay is described as above.

Assay [3] concerns the target T2, PhyB(1-650)-Gal4DD-10aaLinker-mCherry-Kras4BCT (Arabidopsis thaliana; Saccharomyces …, UniProt P04386 50-106, phycocyanobilin (PCB) chromophore covalently bound; C-terminal CaaX prenylation sequence).
T2 construct: also called pAL148; not shown: mCherry fluorescent protein, amplified from a vector
The assay is described as above.

Assay [4] deals with T3, PhyB(1-650)-10aaLinker-mCherry-Kras4BCT (Arabidopsis thaliana, UniProt P14713 1-650, phycocyanobilin (PCB) chromophore covalently bound; C-terminal CaaX prenylation sequence).
T3 construct: Expressed in NIH3T3 cells at the plasma membrane; also called pAL117; PhyB-NT; not shown: mCherry fluorescent protein, amplified from a vector
T3 sequence: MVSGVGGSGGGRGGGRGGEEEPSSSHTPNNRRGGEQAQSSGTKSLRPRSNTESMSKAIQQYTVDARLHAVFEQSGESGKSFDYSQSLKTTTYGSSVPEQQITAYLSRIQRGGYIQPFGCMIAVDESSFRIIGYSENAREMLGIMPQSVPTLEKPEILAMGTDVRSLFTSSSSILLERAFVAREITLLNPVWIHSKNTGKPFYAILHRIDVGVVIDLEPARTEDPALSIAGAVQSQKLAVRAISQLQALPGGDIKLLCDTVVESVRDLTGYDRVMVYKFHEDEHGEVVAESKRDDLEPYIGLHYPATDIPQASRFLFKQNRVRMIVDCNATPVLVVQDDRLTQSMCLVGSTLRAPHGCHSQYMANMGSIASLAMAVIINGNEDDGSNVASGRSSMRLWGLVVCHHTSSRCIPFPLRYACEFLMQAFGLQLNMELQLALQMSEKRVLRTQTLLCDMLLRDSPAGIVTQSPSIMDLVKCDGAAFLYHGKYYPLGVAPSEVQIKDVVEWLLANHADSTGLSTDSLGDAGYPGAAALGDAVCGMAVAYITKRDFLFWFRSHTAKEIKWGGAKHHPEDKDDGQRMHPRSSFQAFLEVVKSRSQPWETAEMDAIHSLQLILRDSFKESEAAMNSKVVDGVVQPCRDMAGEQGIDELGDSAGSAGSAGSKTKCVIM
The assay is described as above.

Assay [5] deals with T4, PhyBFL-10aaLinker-mCherry-Kras4BCT (Arabidopsis thaliana, UniProt P14713 1-1172, phycocyanobilin (PCB) chromophore covalently bound; C-terminal CaaX prenylation sequence).
T4 construct: also called pAL162; PhyB full length; not shown: mCherry fluorescent protein, amplified from a vector
T4 sequence: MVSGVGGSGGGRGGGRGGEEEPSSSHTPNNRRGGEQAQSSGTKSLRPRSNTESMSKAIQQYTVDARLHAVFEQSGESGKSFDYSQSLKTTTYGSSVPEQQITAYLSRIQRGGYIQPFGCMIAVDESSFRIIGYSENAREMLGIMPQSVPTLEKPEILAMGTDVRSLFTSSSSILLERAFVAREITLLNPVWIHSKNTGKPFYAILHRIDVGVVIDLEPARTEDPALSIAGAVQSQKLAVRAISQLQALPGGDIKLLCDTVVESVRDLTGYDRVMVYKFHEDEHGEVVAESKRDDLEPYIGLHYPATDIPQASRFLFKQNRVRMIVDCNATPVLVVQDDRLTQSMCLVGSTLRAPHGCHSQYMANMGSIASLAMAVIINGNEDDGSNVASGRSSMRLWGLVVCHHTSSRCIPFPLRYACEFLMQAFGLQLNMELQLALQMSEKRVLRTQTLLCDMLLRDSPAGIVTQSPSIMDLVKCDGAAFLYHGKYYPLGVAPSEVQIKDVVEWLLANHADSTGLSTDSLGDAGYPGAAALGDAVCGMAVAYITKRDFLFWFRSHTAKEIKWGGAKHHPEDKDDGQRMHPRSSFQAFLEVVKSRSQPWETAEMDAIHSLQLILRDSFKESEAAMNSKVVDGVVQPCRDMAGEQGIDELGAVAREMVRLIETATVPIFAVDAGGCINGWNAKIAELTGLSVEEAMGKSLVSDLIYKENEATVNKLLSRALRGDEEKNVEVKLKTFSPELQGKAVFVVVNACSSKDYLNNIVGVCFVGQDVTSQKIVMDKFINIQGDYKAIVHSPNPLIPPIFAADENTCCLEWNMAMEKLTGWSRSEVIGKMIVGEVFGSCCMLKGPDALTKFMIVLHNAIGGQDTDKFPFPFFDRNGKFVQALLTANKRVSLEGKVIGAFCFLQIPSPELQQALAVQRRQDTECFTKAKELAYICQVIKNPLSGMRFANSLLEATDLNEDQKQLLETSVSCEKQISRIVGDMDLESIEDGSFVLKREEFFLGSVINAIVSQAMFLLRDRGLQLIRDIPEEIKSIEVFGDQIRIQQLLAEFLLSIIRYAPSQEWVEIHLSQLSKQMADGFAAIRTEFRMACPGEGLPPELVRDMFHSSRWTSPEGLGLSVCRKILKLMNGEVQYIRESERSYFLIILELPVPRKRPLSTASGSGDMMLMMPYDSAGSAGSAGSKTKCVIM
The assay is described as above.

Assay [6] concerns the target T5, PIF6APB-mYFP-20aaLinker-Rac1(Q61L)ΔCT (Arabidopsis thaliana, UniProt P63000 1-188).
T5 construct: also called pAL105; Rac1(Q61L, no caax); not shown: mYFP: EYFP with monomerizing A206K mutation
The assay can be described thus: global light-activated membrane translocation in NIH3T3 cells, red light.

Turning to B1, the binding result in assay [1], in assay [2], in assay [3], in assay [4] and in assay [5] was “no binding” in each case.

With B2, the binding result in assay [6] is “binds”.
